T1: GST-Kap60ΔIBB (S. cerevisiae, UniProt Q02821 81-542)
T1 construct: Kap60/Srp1 (importin α) of S. cerevisiae lacking the N-terminal IBB domain (80 amino acids); GST can be removed with TEV protease; also called GST-tagged Kap60ΔIBB; source: E. coli BL21 (DE3) Rosetta Star, immobilized on glutathione-agarose beads
T1 sequence (looked up): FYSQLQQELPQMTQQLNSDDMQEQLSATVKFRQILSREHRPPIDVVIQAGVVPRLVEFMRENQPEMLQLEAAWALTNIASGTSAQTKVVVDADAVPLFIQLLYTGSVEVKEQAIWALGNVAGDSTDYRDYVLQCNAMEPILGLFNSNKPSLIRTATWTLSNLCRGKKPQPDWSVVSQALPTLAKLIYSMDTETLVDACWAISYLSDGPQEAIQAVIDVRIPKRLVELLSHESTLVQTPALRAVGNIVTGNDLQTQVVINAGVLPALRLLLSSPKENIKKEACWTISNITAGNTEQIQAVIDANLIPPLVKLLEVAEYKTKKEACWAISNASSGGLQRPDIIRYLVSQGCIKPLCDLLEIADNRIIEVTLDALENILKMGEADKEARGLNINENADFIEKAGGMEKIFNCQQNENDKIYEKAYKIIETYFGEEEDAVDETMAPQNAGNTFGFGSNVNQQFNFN

T2: GST-Kap123 (S. cerevisiae, UniProt P40069 1-1113)
T2 construct: Kap123 (karyopherin β4) of S. cerevisiae, recombinant; also called GST-tagged Kap123; source: E. coli BL21 (DE3) Rosetta Star, immobilized on glutathione-agarose beads
T2 sequence (looked up): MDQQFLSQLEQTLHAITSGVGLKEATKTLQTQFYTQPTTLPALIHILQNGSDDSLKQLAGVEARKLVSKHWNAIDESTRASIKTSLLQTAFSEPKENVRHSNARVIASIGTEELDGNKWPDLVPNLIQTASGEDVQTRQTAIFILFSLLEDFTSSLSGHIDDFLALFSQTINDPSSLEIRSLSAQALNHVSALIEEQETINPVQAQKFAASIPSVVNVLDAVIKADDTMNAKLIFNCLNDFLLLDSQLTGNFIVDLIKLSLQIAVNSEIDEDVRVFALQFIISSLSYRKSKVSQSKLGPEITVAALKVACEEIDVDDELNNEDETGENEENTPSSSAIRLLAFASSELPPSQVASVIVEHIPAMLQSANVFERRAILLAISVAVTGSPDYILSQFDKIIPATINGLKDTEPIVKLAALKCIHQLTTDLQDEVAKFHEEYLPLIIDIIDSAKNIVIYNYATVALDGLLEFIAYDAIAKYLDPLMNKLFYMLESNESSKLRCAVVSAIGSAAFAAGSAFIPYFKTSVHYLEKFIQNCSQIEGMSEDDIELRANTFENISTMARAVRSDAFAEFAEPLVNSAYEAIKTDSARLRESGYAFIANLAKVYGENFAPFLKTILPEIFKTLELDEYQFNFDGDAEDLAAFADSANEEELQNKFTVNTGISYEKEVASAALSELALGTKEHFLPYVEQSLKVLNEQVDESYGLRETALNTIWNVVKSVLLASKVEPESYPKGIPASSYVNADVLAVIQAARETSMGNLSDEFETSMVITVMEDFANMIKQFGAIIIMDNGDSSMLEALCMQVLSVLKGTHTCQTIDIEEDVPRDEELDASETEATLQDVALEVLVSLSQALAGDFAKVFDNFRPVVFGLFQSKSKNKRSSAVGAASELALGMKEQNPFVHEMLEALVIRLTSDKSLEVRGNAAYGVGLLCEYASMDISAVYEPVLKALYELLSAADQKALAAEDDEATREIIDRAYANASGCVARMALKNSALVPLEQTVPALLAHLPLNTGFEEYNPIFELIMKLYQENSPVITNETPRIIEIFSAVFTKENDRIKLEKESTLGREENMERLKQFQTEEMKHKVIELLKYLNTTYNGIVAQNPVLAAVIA

T3: Kap60ΔIBB (S. cerevisiae, UniProt Q02821 81-542)
T3 construct: Kap60/Srp1 (importin α) of S. cerevisiae lacking the N-terminal IBB domain (80 amino acids); also called purified Kap60ΔIBB; purified Kap60; source: E. coli BL21 (DE3) Rosetta Star, purified (glutathione-agarose, eluted with TEV protease)
T3 sequence (looked up): T1 sequence (looked up)

B1: Flag-Yar1 (natural protein, S. cerevisiae, UniProt P46683 1-200, looked up)
chain: MGLHSEPLDQEDQDTIILDARAGDLDSLKDIFTTLVSPELLSTCKESESDSTALHMAAANGHIETVRYILETVSRANSAEDLKAFVNEVNKTGNTALHWASLNGKLDVVKLLCDEYEADPFIRNKFGHDAIFEAENSGKEEVETYFLKKYDVEPEDDEEDTQTEGKNSVQITKGTEIEQVTKEATEALREETEKLNINKD
notes: Yar1, specific chaperone of Rps3, S. cerevisiae, recombinant
B2: His6-Rps3 (natural protein, S. cerevisiae, UniProt P05750 1-240, looked up)
chain: MVALISKKRKLVADGVFYAELNEFFTRELAEEGYSGVEVRVTPTKTEVIIRATRTQDVLGENGRRINELTLLVQKRFKYAPGTIVLYAERVQDRGLSAVAQAESMKFKLLNGLAIRRAAYGVVRYVMESGAKGCEVVVSGKLRAARAKAMKFADGFLIHSGQPVNDFIDTATRHVLMRQGVLGIKVKIMRDPAKSRTGPKALPDAVTIIEPKEEEPILAPSVKDYRPAEETEAQAEPVEA
notes: ribosomal protein Rps3 of S. cerevisiae, recombinant; also called wild-type Rps3 (of the His6-Rps3/Flag-Yar1 complex); source: E. coli BL21 (DE3) Rosetta Star, purified as His6-Rps3/Flag-Yar1 complex (Ni-NTA agarose); not shown: His6, N-terminal, kept

Conditions in all cases: both partners purified
In the test “His6-Rps3” the target is B2. The experiment in a line: pull-down; His6-Rps3/Flag-Yar1 complex immobilized via His6-Rps3 on Ni-NTA agarose, incubated with increasing amounts of purified Kap60ΔIBB for 1 h at 4 °C; eluted with 300 mM imidazole (Ni-NTA eluate); Coomassie staining.
The target in the next test is T1, GST-Kap60ΔIBB. Put plainly: pull-down; GST-tagged importins immobilized on glutathione-agarose beads, incubated with purified His6-Rps3/Flag-Yar1 complex or purified Flag-Yar1; 50 mM Tris pH 7.5, 150 mM NaCl, 1 mM DTT; eluted by boiling (Fig. 2b, Supplementary Fig. S2) or by TEV cleavage (Fig. 2c); Coomassie staining or Western blotting. For orientation: A western blot detects proteins with antibodies after separation by electrophoresis.

Another test addresses T2, GST-Kap123. The description is as above.
The target of a further test is T3, Kap60ΔIBB. Put plainly: pull-down; His6-Rps3/Flag-Yar1 complex immobilized via His6-Rps3 on Ni-NTA agarose, incubated with increasing amounts of purified Kap60ΔIBB for 1 h at 4 °C; eluted with 300 mM imidazole (Ni-NTA eluate); Coomassie staining.

Take B1: the binding result with His6-Rps3 was “binds”.

With B2, the binding result in the test with GST-Kap60ΔIBB, with GST-Kap123 and with Kap60ΔIBB was “binds” in each case.

Source of the values: PMC5098186, “Nuclear import of dimerized ribosomal protein Rps3 in complex with its chaperone Yar1” (Scientific Reports, 2016).
